The record followed here is article PMC11848828.

Assay [1] has as its target Human 14-3-3ζ protein (human) (UniProt P63104). In words: ITC. A general note: In ITC the heat of successive injections is recorded.
The target is the same in assay [2]. Nature of the assay: real-time 1D 1H NMR.

The Kd is the constant that tells how readily two partners part at equilibrium.

UniProt P63104, sequence (P63104 whole entry): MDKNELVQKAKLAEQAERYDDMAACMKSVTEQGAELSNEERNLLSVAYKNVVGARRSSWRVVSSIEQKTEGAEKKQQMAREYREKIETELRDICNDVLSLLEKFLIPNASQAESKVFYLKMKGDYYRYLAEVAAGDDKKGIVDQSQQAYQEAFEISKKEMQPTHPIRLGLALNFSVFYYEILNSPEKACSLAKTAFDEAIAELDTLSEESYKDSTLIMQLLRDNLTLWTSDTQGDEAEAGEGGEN

In assay [1], PRLR P393V variant peptide came in with a Kd of 28 µM and a dH of -3.08 kcal/mol.

In assay [1], PRLR W392A variant peptide yielded an equilibrium dissociation constant (Kd) of 4 µM and a dH of -8.17 kcal/mol.

As for PRLR W392L variant peptide, in assay [1], the Kd was 13 µM.

In assay [1], PRLR W392Y variant peptide showed a Kd, two-sets-of-sites model, first set of 0.4 µM; a Kd, two-sets-of-sites model, second set of 2.3 µM; a dH of -4.88 kcal/mol; a dH of the cis proline isomer of -4.64 kcal/mol. This substance yielded a dH of the trans proline isomer in assay [1] of -5.4 kcal/mol.

“PRLR WT peptide (21-residue phosphorylated fragment of the human prolactin receptor intracellular domain, pThr391)” registered a dH in assay [1] of -5.62 kcal/mol. Moreover, in assay [2], the concentration of the cis isomer bound instantly (t0) stood at 101 µM.
